The target of assay [1] is T1, Murine CD147 (Uniprot P18572), recombinant protein (murine (mouse), UniProt P18572 22-325, limits assumed).
T1 construct: also called mCD147; mouse CD147
T1 sequence: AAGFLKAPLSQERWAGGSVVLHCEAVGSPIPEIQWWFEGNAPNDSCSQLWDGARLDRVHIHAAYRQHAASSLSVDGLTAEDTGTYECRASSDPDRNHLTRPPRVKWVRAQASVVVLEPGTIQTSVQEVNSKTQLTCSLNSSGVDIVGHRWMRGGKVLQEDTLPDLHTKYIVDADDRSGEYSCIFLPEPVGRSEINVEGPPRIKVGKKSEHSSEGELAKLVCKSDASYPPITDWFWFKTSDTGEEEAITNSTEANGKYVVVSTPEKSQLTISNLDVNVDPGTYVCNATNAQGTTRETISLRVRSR
As to the kind of experiment: ELISA, 100 ng murine CD147 coated, anti-flag detection. The method, then:
For the ELISA, 100 ng of murine CD147 was coated onto Nunc polysorb plates overnight in 1× coating buffer. The wells were washed once with TBST (0.01% tween 20) and then blocked for 1 hour using 1× fishgel in TBST at room temperature (RT). Ibx-11, Ibx-13, Ibx-75, Ibx-76, Ibx-77, and anti-HIS antibody was incubated at 0.01-100 ng/well in 100 μl for 1 hour at RT before being washed 3× for 5 min each wash. The wells were incubated with anti-human for Ibx-11 & Ibx-13 treated wells and with anti-flag for Ibx-77, Ibx-75, Ibx-76 treated wells at 1:1000 dilution for 1 hour RT, and then washed 3× for 5 min each wash. The wells were incubated with 100p/Well of TMBE for 30 minutes and the reaction was stopped with 100p/Well of 2N sulphuric acid. Optical Density (OD) was measured using Biotek synergy 4 instrument for quantification.
(ELISA stands for enzyme-linked immunosorbent assay.)

For assay [2], the target named is T2, Human CD147 (Uniprot P35613), recombinant protein (UniProt P35613 138-325).
T2 chain: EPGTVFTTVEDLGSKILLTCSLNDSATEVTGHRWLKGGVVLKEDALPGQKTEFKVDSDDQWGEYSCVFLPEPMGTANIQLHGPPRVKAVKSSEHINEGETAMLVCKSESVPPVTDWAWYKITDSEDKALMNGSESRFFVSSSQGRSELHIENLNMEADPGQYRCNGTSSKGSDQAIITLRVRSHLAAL
As to the kind of experiment: SPR. (In general: Surface plasmon resonance follows binding to a sensor surface in real time, without labels.)

Assay [3] concerns the target T3, Human CD147 (Uniprot P35613), recombinant protein (human, UniProt P35613 138-325).
T3 construct: also called recombinant CD147; CD147 protein
T3 sequence: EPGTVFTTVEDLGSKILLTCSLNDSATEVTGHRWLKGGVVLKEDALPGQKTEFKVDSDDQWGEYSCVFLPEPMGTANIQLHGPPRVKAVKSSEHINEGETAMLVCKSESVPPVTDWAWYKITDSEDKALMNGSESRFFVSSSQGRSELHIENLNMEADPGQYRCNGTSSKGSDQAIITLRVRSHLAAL
As to the kind of experiment: SPR sensorgram, partly purified sample injected on a sensor chip; the chip's ligand is not stated. Here is the method:
Approximately 45 μl of Ibx-74 and Ibx-75 at various stages of purification were provided; 35 μl of each sample was injected on a sensor chip and sensograms were collected. The flow rate was 10 μ/minute, and the chip was regenerated with 10 mM Glycine at pH 1.5.

Assay [4] concerns the target T3, Human CD147 (Uniprot P35613), …. As to the kind of experiment: SPR, CD147 injected as analyte at 0-900 nM, kinetic model. The method, then: (§1) For this assay, CD147 was injected in HBS-EP buffer pH7.4 at concentrations ranging from 0 nM to 900 nM at 10 μl/min for 600 Seconds. Duplicate CD147 injections were carried out for 0, 9.22, […], 23.04, 57.6, 144, 360, 900 nM (a 2.5-fold dilution series). The chip surface was regenerated using 10 mM Glycine pH 2.0 @ 10 μl/min for 180 sec.
(§2) One technical replicate of 0 nm & 23.04 nM was excluded from analysis due to sudden air spikes and DIPs during analyte injection. Data were analyzed in Q-Dat software provided by instrument manufacturer. A steady state 1:1 fitting model (FIG. 4) was used for initial steady state binding analysis, and a simple Kd/Ka kinetic model (FIG. 5) was used to estimate KD.

Assay [5] has the same target. As to the kind of experiment: SPR, CD147 injected as analyte at 0-900 nM, steady state 1:1 fit. Here is the method:
as §1, §2

In assay [6] the target is T2, Human CD147 (Uniprot P35613), …. Briefly: SPR; kinetic model; Ibx-77 injected over immobilized CD147.
For assay [7] the target is unchanged. Briefly: SPR; steady state 1:1 fit; Ibx-77 injected over immobilized CD147.

A word on the Kd: it is the constant that tells how readily two partners part at equilibrium. What is called koff is a measure of how fast the partners let go of each other. A word on the kon: it is a measure of how fast the partners come together.

B1: Ibx-76 (dimer of Ibx-13) (VHH)
chain: QVQLVESGGGLVQPGGSLRLSCTASEDTFSTYAIGWFRQAPGQGREFVAGITANGIATRYNDSLKDRFTISRDNAKNTVYLQMNSLQPEDTAVYSCGADTRRFSLPSTVHEIDYWGQGTQVTVSSEPKIPQPQPKPQPQPQPQPQPKPQPEPQVQLVESGGGLVQPGGSLRLSCTASEDTFSTYAIGWFRQAPGQGREFVAGITANGIATRYNDSLKDRFTISRDNAKNTVYLQMNSLQPEDTAVYSCGADTRRFSLPSTVHEIDYWGQGTQVTVSS
notes: Tandem bivalent VhH without Fc; not shown: Flag tag, since detection was with anti-flag
Turning to B1, in assay [1], the binding result is reported as “no binding (tested: 0.01-100 ng/well)”.

B2: Ibx-75 (dimer of Ibx-12) (VHH)
chain: QVRLVESGGGLVQAGDSLRLSCQASGGTFTTYAMGWFRQAPGQEREFVSATTWSTGTSYYAYAADSVKGRFTTSRDNDNTVTLTMKRLKPDDTAVYYCSADPDGSDWAHSARQLRYWGQGTQVTVSSEPKIPQPQPKPQPQPQPQPQPKPQPEPQVRLVESGGGLVQAGDSLRLSCQASGGTFTTYAMGWFRQAPGQEREFVSATTWSTGTSYYAYAADSVKGRFTTSRDNDNTVTLTMKRLKPDDTAVYYCSADPDGSDWAHSARQLRYWGQGTQVTVSS
notes: Tandem bivalent VhH without Fc; also called tandem bivalent Ibx-75; not shown: Flag tag, since detection was with anti-flag
As to B2, in assay [2], the Kd was 0.000428 nM. Moreover, in assay [1], the binding result is given as “no binding (tested: 0.01-100 ng/well)”. The koff in assay [3] was determined as 1e-06 s⁻¹.

B3: Ibx-77 (dimer of Ibx-14) (VHH, not shown: small tags and cut ends)
chain: QVQLVESGGGLVQAGDSLTLSCAASGRSLSSNAMGWFRQAPGKEREFVSGTTWHAGTQYYAYAADSVKGRFTTSRDNANTVSLQMKRLKPEDTAVYYCAAAVSGPGYDSWGQGTQVTVSSEPKIPQPQPKPQPQPQPQPQPKPQPEPQVQLVESGGGLVQAGDSLTLSCAASGRSLSSNAMGWFRQAPGKEREFVSGTTWHAGTQYYAYAADSVKGRFTTSRDNANTVSLQMKRLKPEDTAVYYCAAAVSGPGYDSWGQGTQVTVSS
notes: Tandem bivalent VhH without Fc
As to B3, in assay [1], the binding result is listed as “no binding (tested: 0.01-100 ng/well)”. For the same molecule, the Kd in assay [4] was found to be 36.1 nM; in assay [5] it was 138 nM; in assay [6] it was 0.335 nM; in assay [7], 10.8 nM. In addition, the off-rate (koff) in assay [4] stood at 0.000489 s⁻¹. Besides, in assay [4], the kon was 13300 M⁻¹ s⁻¹.

B4: Ibx-74 (dimer of Ibx-11) (VHH)
chain: QVRLEESGGGLVQAGGSLRLSCAASGLAFSIYGMGWFRQAPGKEREFVSVVDNTGSTTLYADSVKGRFTISRDNAKNTVYLQMSSLEPEDTAVYYCGAGPKNYLGSHEYAYWGQGTQVTVSSEPKIPQPQPKPQPQPQPQPQPKPQPEPQVRLEESGGGLVQAGGSLRLSCAASGLAFSIYGMGWFRQAPGKEREFVSVVDNTGSTTLYADSVKGRFTISRDNAKNTVYLQMSSLEPEDTAVYYCGAGPKNYLGSHEYAYWGQGTQVTVSS
notes: Tandem bivalent VhH
Regarding B4, the Kd in assay [2] came out at 0.0139 nM. Also, the dissociation rate constant (koff) in assay [3] turned out to be 3e-05 s⁻¹.

(Values after US20240010723A1 (IBEX BIOSCIENCES, published 2024).)
